Measured values taken from article PMC6675082.

Molecular target: NpDps4 (Dps4 from Nostoc punctiforme ATCC 29133) (Nostoc punctiforme ATCC 29133)
Test: crystal structure; sitting-drop vapour diffusion, 25% SOKALAN HP 66, 0.1 M HEPES pH 7.0, 0.2 M NaOAc, room temperature; metal-free, Fe2+-soaked and Zn2+-soaked crystals; four molecules in the asymmetric unit, a third of the dodecameric hollow sphere

NpDps4 (Dps4 from Nostoc punctiforme ATCC 29133) (natural protein)
stoichiometry N: 12
